Reference: the supplement of paper PMC9732359
± gives the uncertainty stated by the source.

Assay: protein stability index of a GFP-peptide fusion (yeast GPS) (PSI 1-4); higher = more stable; sorted into four equal gates, so the index is relative within each strain
Summary of the method: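 Sequencing reads from sorted gates were used to score each peptide. The library consisted of tiled 17-residue yeast protein peptides fused downstream of GFP on a Cherry-expressing plasmid, pooled and carried in yeast. Mid-log cultures in leucine-free medium were split into four equal gates by GFP/Cherry ratio, and each gate's plasmids were PCR-amplified and Illumina-sequenced. The protein stability index adds up, over all gates, the read frequency multiplied by the gate number.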

Sequence	protein stability index (doa10∆)	protein stability index (pdr5∆)	protein stability index (san1∆)	protein stability index (ubr1∆)
NWLSIFNDFSNIKTSEW [REC8]	2.67 ± 0.082	2.95 ± 0.061	2.94 ± 0.091	2.91 ± 0.085
SRLTLLLRALKTNEESA [PRP8]	1.91 ± 0.056	1.58 ± 0.058	1.84 ± 0.09	1.97 ± 0.044
AAMVIMHLMALHIHGSS [COB]	1.9 ± 0.051	1.48 ± 0.059	1.35 ± 0.093	1.35 ± 0.044
DRMAKYLHIRDKILQLN [PGD1]	2.32 ± 0.12	2.01 ± 0.079	1.76 ± 0.099	1.77 ± 0.049
FVSNMGFDIQKSCEPVS [SIR4]	2.06 ± 0.066	2.05 ± 0.12	1.68 ± 0.24	2.12 ± 0.075
SNEIKVTNDLDTSAEKD [SIR4]	3.29 ± 0.095	3.35 ± 0.062	3.26 ± 0.055	3.04 ± 0.055
NSSTSPAPSIPSTGFKF [YLR335W/NUP2]	2.38 ± 0.04	2.5 ± 0.036	2.48 ± 0.043	2.21 ± 0.028
ASAASEAIRDPKNSSSP [SSN8]	2.61 ± 0.19	3.18 ± 0.2	2.46 ± 0.25	3.13 ± 0.13
FLMGIFNSVVNLSRYPK [MTR3]	2.6 ± 0.091	2.5 ± 0.089	2.49 ± 0.13	2.32 ± 0.13
ASLVPEGNQGSLQEDVS [MED8]	3.19 ± 0.096	3.24 ± 0.087	2.9 ± 0.048	2.41 ± 0.097
EAAAVRDLSEASVYPEY [RPS26A]	2.25 ± 0.076	2.53 ± 0.082	2.65 ± 0.076	2.93 ± 0.09
SQPTAAGGPDMTTPQNI [DSN1]	1.82 ± 0.065	1.9 ± 0.063	1.89 ± 0.1	1.36 ± 0.053
PWNDDYPFLLSFLGEAK [YML103C/NUP188]	1.42 ± 0.047	1.6 ± 0.061	1.66 ± 0.088	1.98 ± 0.046
DFIKFDQIAVCEISGSI [BRN1]	2.32 ± 0.14	2.4 ± 0.12	2.12 ± 0.14	2.82 ± 0.076
PAGFTHKLSNWLFGWND [YDL088C/ASM4]	2.86 ± 0.073	3.07 ± 0.067	3.33 ± 0.053	2.96 ± 0.043
CLEDPEKPFNENRFQDT [POP4]	2.68 ± 0.15	3.02 ± 0.16	2.64 ± 0.24	3.03 ± 0.099
DTADEAKTLIPSLNNKI [RPB4]	2.95 ± 0.075	3.15 ± 0.078	3.1 ± 0.063	3.1 ± 0.078
NASLTIEDEDEPFNAGI [SMC1]	3.29 ± 0.13	3.15 ± 0.12	3.39 ± 0.083	3.23 ± 0.085
SFVFGQAAAKPSLEKSS [YLR335W/NUP2]	1.79 ± 0.1	2.5 ± 0.1	2.21 ± 0.14	2.67 ± 0.09
LYQSLTPQQLQMIQQRH [SNF5]	1.77 ± 0.037	2.24 ± 0.04	1.69 ± 0.053	2.08 ± 0.033
NMNNGGKELDSLDLNNL [PGD1]	3.06 ± 0.11	3.24 ± 0.11	3.06 ± 0.079	3.26 ± 0.065
TIRLWECGTGTTIHTFN [RPN14]	2.11 ± 0.18	2.4 ± 0.11	2.21 ± 0.12	1.99 ± 0.13
MAGVKAYELRTKSKEQL [RPL35A]	3 ± 0.11	3.38 ± 0.1	2.94 ± 0.067	3.17 ± 0.13
PLVAHLGLYVGVDDQIL [YJL039C/NUP192]	2.42 ± 0.074	2.85 ± 0.12	2.26 ± 0.11	1.48 ± 0.13
FLQRVRVWEYRQKNVIH [RPL15A]	1.77 ± 0.24	1.72 ± 0.085		2.02 ± 0.19
LQNCCIIDVGTHHTDII [ARP9]	1.43 ± 0.11	1.9 ± 0.07	1.51 ± 0.15	2.28 ± 0.066
EVTFKNANIFSSVKCFG [FAS1]	2.92 ± 0.046	2.81 ± 0.058	2.84 ± 0.063	3.06 ± 0.052

Sequence	protein stability index (doa10∆)	protein stability index (pdr5∆)	protein stability index (san1∆)	protein stability index (ubr1∆)
NVRALYMRLWEINETEF [RMP1]	3 ± 0.24			
TSAHLKLKEMQKVLNAH [SMC4]	2.41 ± 0.13	2.76 ± 0.17	2.63 ± 0.096	1.97 ± 0.085
EQWLRQFEVSDDEKNDK [SNF2]	3.41 ± 0.065	3.21 ± 0.059	3.17 ± 0.053	3.09 ± 0.046
AGEFGLKNKREIYRISF [RPS9B]	2.56 ± 0.065	2.94 ± 0.091	3.08 ± 0.14	2.77 ± 0.066
PSMKKIKIEPSADDDVN [SIR3]	1.95 ± 0.077	2.63 ± 0.1	2.75 ± 0.091	2.73 ± 0.069
EFYNEMHRPVHFLQFSE [PRP8]	2.9 ± 0.086	2.51 ± 0.089	2.27 ± 0.067	2.33 ± 0.058
ELKINLPLTEHKSPNLS [SRB4]	2.93 ± 0.077	3.17 ± 0.051	2.87 ± 0.041	2.98 ± 0.058
YQSSVQEPFLNSSNYAE [PRP8]	2.99 ± 0.055	2.96 ± 0.052	2.78 ± 0.053	2.9 ± 0.043
CVQLIKCLVEKSICFEN [SWI1]	2.49 ± 0.25	2.61 ± 0.25	2.28 ± 0.17	2.74 ± 0.15
QYILQIVSFIVNCFHED [YJL039C/NUP192]	1.42 ± 0.061	1.91 ± 0.062	2.18 ± 0.077	2.3 ± 0.057
MATIASEYSSEASNTPI [PRE7]	2.53 ± 0.094	2.76 ± 0.14	2.83 ± 0.08	2.93 ± 0.13
LKNCKISNINIPISSET [SMC1]	2.81 ± 0.17	2.95 ± 0.11	3.05 ± 0.08	2 ± 0.067
KAKKLIQSLPPTLKVNR [RPL38]	2.13 ± 0.039	2.18 ± 0.039	2.02 ± 0.048	2.27 ± 0.036
EKVNNNATLTPNDSNDE [SWI1]	3.26 ± 0.07	3.14 ± 0.057	3.11 ± 0.063	3.16 ± 0.047
SEKNKRQSKSSGKSNTS [ITC1]	3.06 ± 0.094	3.31 ± 0.071	2.98 ± 0.073	3.16 ± 0.1
RSRKTVKAQRPITGASL [RPL24A]	3.34 ± 0.077	3.22 ± 0.11	3.14 ± 0.12	3.24 ± 0.088
FSISYKPPTQKTDTKVS [SRP21]	2.24 ± 0.037	2.15 ± 0.042	1.98 ± 0.059	2.11 ± 0.033
FDKVEVQVRSVMDPITS [DIS3]	2.78 ± 0.07	2.8 ± 0.066	3.21 ± 0.053	3.04 ± 0.064
QYSTRHDAPRGLFPFES [SWI3]	3.14 ± 0.062	3.17 ± 0.073	3.2 ± 0.077	3.13 ± 0.067
IAASAFLSLLNLATKGM [REC8]	1.54 ± 0.054	1.52 ± 0.054	1.71 ± 0.1	1.62 ± 0.046
VRFIGDSVAAIGIPVNK [QCR2]	2.83 ± 0.13	2.52 ± 0.16	2.4 ± 0.14	3.02 ± 0.2
SVTRAGNIISSDKTIVP [SIN4]	3.01 ± 0.12	2.88 ± 0.099	2.97 ± 0.12	3.1 ± 0.068
LSDRANKNQDAFEAELS [ARP9]	3.28 ± 0.072	3.13 ± 0.08	3.04 ± 0.07	3.31 ± 0.057
VNGSITDQLIQNIETRQ [NUT1]	3.22 ± 0.079	3.01 ± 0.092	3.05 ± 0.071	3.15 ± 0.042
GISEVQARKSKSVSFYA [RPT5]	3.4 ± 0.064	3.39 ± 0.093	3.37 ± 0.056	3.31 ± 0.063
HVFQYANRPRLVGRKPA [RPC37]	2.86 ± 0.23		2.28 ± 0.28	2.69 ± 0.082
DPDKLKPNDLVGVNKDS [RPT5]	3.18 ± 0.11	3.32 ± 0.13	3.34 ± 0.055	3.41 ± 0.098
